Laboratory results: patent EP4674868A1
Like-named read-outs stand apart in the source and are kept apart here.

Experiments:
[1] = target: human 4-1BB on the surface of HEK293 cells (HEK293-Hu4-1BB) (human) (UniProt Q07011); test: cell-based or functional assay
[2] = target: human CD40 on the surface of HEK293 cells (HEK293-HuCD40) (human) (UniProt P25942); test: cell-based or functional assay
[3] = target: human FAP on the surface of CHO-K1 cells (CHO-K1-HuFAP) (human) (UniProt Q12884); test: FACS, CHO-K1-HuFAP cells
[4] = target: human FAP on the surface of CHO-K1 cells (CHO-K1-HuFAP) (human) (UniProt Q12884); test: FACS, CHO-K1-HuFAP cells; remark: listed apart in the source
[5] = target: human CD40 on the surface of HEK293 cells (HEK293-HuCD40) (human) (UniProt P25942); test: cell-based or functional assay; remark: listed apart in the source
[6] = target: human CD40 on the surface of HEK293 cells (HEK293-HuCD40) (human) (UniProt P25942); test: FACS, HEK293-HuCD40 cells
[7] = target: human FAP on the surface of CHO-K1 cells (CHO-K1-HuFAP) (human) (UniProt Q12884); test: FACS, CHO-K1-HuFAP cells; remark: listed apart in the source
[8] = target: human 4-1BB on the surface of HEK293 cells (HEK293-Hu4-1BB) (human) (UniProt Q07011); test: FACS, HEK293-Hu4-1BB cells
[9] = target: human 4-1BB on the surface of HEK293 cells (HEK293-Hu4-1BB) (human) (UniProt Q07011); test: cell-based or functional assay; remark: listed apart in the source
[10] = target: human 4-1BB on the surface of HEK293 cells (HEK293-Hu4-1BB) (human) (UniProt Q07011); test: FACS, HEK293-Hu4-1BB cells; remark: listed apart in the source
[11] = target: human 4-1BB on the surface of HEK293 cells (HEK293-Hu4-1BB) (human) (UniProt Q07011); test: FACS, HEK293-Hu4-1BB cells; remark: listed apart in the source
[12] = target: human CD40 on the surface of HEK293 cells (HEK293-HuCD40) (human) (UniProt P25942); test: FACS, HEK293-HuCD40 cells; remark: listed apart in the source
[13] = target: human 4-1BB on the surface of HEK293 cells (HEK293-Hu4-1BB) (human) (UniProt Q07011); test: FACS, HEK293-Hu4-1BB cells; remark: listed apart in the source

4-1BB/NF-κB luciferase reporter, CD40-crosslinked, Fold change in Emax [1] [fold]	4-1BB/NF-κB luciferase reporter, FAP-crosslinked, Fold change in Emax [1] [fold]	4-1BB/NF-κB luciferase reporter, uncrosslinked, Fold change in Emax [1] [fold]	CD40/NF-κB reporter (HEK-Blue CD40L), 4-1BB-crosslinked, Fold change in Emax [2] [fold]	CD40/NF-κB reporter (HEK-Blue CD40L), FAP-crosslinked, Fold change in Emax [2] [fold]	CD40/NF-κB reporter (HEK-Blue CD40L), uncrosslinked, Fold change in Emax [2] [fold]	Maximum fluorescence value [3]	Maximum fluorescence value [4]	CD40/NF-κB reporter (HEK-Blue CD40L), uncrosslinked, Fold change in Emax [5] [fold]	Maximum fluorescence value [6]	Maximum fluorescence value [7]	Maximum fluorescence value [8]	4-1BB/NF-κB luciferase reporter, CD40-crosslinked, Fold change in Emax [9] [fold]	4-1BB/NF-κB luciferase reporter, FAP-crosslinked, Fold change in Emax [9] [fold]	4-1BB/NF-κB luciferase reporter, uncrosslinked, Fold change in Emax [9] [fold]	Maximum fluorescence value [10]	Maximum fluorescence value [11]	Maximum fluorescence value [12]	Maximum fluorescence value [13]	Substance
1.05	1.08	1.1	0.99	0.99	1	64	62	0.99	62	63	67	1.06	1.04	1.05	65	63	61	69	IgG1 isotype control (antibody)
1.06	1.02	1.01													1790				RO7300490 (2302(2+1)PG), FAP/CD40 bispecific antibody molecule, control
